Data: paper PMC12102759

B1: AMOTL2 peptide 64-79 (Angiomotin-like protein 2), 16-mer library wild type / TNKS ANK (TNKS 12 ANK repeats, residues 174-649) (parent)
chain 1: QVLQQATRQEPQGQEH
chain 2: TGVPAVSGALRELLEACRNGDVSRVKRLVDAANVNAKDMAGRKSSPLHFAAGFGRKDVVEHLLQMGANVHARDDGGLIPLHNACSFGHAEVVSLLLCQGADPNARDNWNYTPLHEAAIKGKIDVCIVLLQHGADPNIRNTDGKSALDLADPSAKAVLTGEYKKDELLEAARSGNEEKLMALLTPLNVNCHASDGRKSTPLHLAAGYNRVRIVQLLLQHGADVHAKDKGGLVPLHNACSYGHYEVTELLLKHGACVNAMDLWQFTPLHEAASKNRVEVCSLLLSHGADPTLVNCHGKSAVDMAPTPELRERLTYEFKGHSLLQAAREADLAKVKKTLALEIINFKQPQSHETALHCAVASLHPKRKQVTELLLRKGANVNEKNKDFMTPLHVAAERAHNDVMEVLHKHGAKMNALDTLGQTALHRAALAGHLQTCRLLLSYGSDPSIISLQGFTAAQMGNEAVQQILSESTPIRTSD
B2: PIP5K1C peptide 642-657 (Phosphatidylinositol 4-phosphate 5-kinase type-1 gamma), 16-mer library wild type / TLN1 PTB (TLN1 Phosphotyrosine-binding (PTB) domain, residues 309-401) (parent)
chain 1: TDERSWVYSPLHYSAQ
chain 2: GVSFFLVKEKMKGKNKLVPRLLGITKECVMRVDEKTKEVIQEWNLTNIKRWAASPKSFTLDFGDYQDGYYSVQTTEGEQIAQLIAGYIDIILK
B3: PEX5 peptide 110-125 (Peroxisomal targeting signal 1 receptor), 16-mer library wild type / PEX14 Pex14 (PEX14 PEX14, residues 16-84) (parent)
chain 1: ADLALSENWAQEFLAA
chain 2: TPGSENVLPREPLIATAVKFLQNSRVRQSPLATRRAFLKKKGLTDEEIDMAFQQSGTAADEPSSLGPAT

Variants of: B1
Assay: proteomic peptide phage display deep mutational scan (ProP-PD DMS): M13 P8 16-mer library selected against immobilised GST-tagged bait for four days (rounds), NGS of the eluted pools per day and pseudo-replica
Conditions: with TNKS ANK (TNKS 12 ANK repeats, residues 174-649); bait immobilised on MaxiSorp plates (10 µg), library pre-cleared on GST, 2 h binding at 4 °C, five washes; one round per day, days 1-4; value from days 2 and 3; keep out of graded; scale: average fractional NGS count over selection days 2 and 3

| screen value | Variant |
| --- | --- |
| 8.23e-05 | chain 1 QVLQNATRQEPQGQEH [chain 1 Q5N] |
| 3.1e-05 | chain 1 QVLQQATRQEPQGFEH [chain 1 Q14F] |

Variants of: B2
Assay: as above
Conditions: with TLN1 PTB (TLN1 Phosphotyrosine-binding (PTB) domain, residues 309-401); bait immobilised on MaxiSorp plates (10 µg), library pre-cleared on GST, 2 h binding at 4 °C, five washes; one round per day, days 1-4; value from days 2 and 3; keep out of graded; scale: average fractional NGS count over selection days 2 and 3

| Variant | screen value |
| --- | --- |
| chain 1 D2K | 0.000108 |
| chain 1 A15Y | 9.95e-05 |
| chain 1 A15K | 0 |
| chain 1 L11K | 8.99e-05 |
| chain 1 L11N | 8.93e-05 |
| chain 1 L11D | 0 |
| chain 1 L11S | 3.05e-05 |
| chain 1 L11Q | 2.8e-05 |

Continued, values first:

| screen value | Variant |
| --- | --- |
| 2.49e-05 | chain 1 W6A |
| 3.45e-05 | chain 1 W6G |
| 0 | chain 1 W6H |
| 0 | chain 1 W6D |
| 0 | chain 1 W6Q |
| 6.87e-05 | chain 1 S9E |
| 3.45e-05 | chain 1 S9V |
| 0 | chain 1 S9W |
| 5.79e-05 | chain 1 S9Y |
| 0 | chain 1 S9L |
| 4.86e-05 | chain 1 S9Q |
| 0 | chain 1 S9K |
| 8.28e-05 | chain 1 P10W |
| 3.79e-05 | chain 1 R4I |

Variants of: B3
Assay: as above
Conditions: with PEX14 Pex14 (PEX14 PEX14, residues 16-84); bait immobilised on MaxiSorp plates (10 µg), library pre-cleared on GST, 2 h binding at 4 °C, five washes; one round per day, days 1-4; value from days 2 and 3; scale: average fractional NGS count over selection days 2 and 3

| Variant | screen value |
| --- | --- |
| chain 1 ADLALSERWAQEFLAA [chain 1 N8R] | 0 |
| chain 1 ADLALSEKWAQEFLAA [chain 1 N8K] | 7.71e-05 |
| chain 1 LDLALSENWAQEFLAA [chain 1 A1L] | 0.000249 |
| chain 1 VDLALSENWAQEFLAA [chain 1 A1V] | 0.000338 |
| chain 1 KDLALSENWAQEFLAA [chain 1 A1K] | 0.00027 |
| chain 1 RDLALSENWAQEFLAA [chain 1 A1R] | 0.00015 |
| chain 1 WDLALSENWAQEFLAA [chain 1 A1W] | 0 |
| chain 1 ADLALSENWAQELLAA [chain 1 F13L] | 0.000183 |
| chain 1 ADLALSENWAQESLAA [chain 1 F13S] | 9.56e-05 |
| chain 1 ADLALSENWAQETLAA [chain 1 F13T] | 0.0002 |
| chain 1 ADLALSENWAQEGLAA [chain 1 F13G] | 0 |
| chain 1 ADLALSENWAQEKLAA [chain 1 F13K] | 0 |
| chain 1 ADLALSENWAQEPLAA [chain 1 F13P] | 0 |
| chain 1 ADLSLSENWAQEFLAA [chain 1 A4S] | 9.07e-05 |
| chain 1 ADLYLSENWAQEFLAA [chain 1 A4Y] | 0.000159 |
| chain 1 ADLELSENWAQEFLAA [chain 1 A4E] | 0.000166 |
| chain 1 ADLGLSENWAQEFLAA [chain 1 A4G] | 0 |
| chain 1 ADLMLSENWAQEFLAA [chain 1 A4M] | 0.000358 |
| chain 1 ADLDLSENWAQEFLAA [chain 1 A4D] | 0.000198 |
| chain 1 ADLAESENWAQEFLAA [chain 1 L5E] | 0 |

| Variant | screen value |
| --- | --- |
| chain 1 ADLADSENWAQEFLAA [chain 1 L5D] | 0 |
| chain 1 ADLARSENWAQEFLAA [chain 1 L5R] | 0.000218 |
| chain 1 ADLANSENWAQEFLAA [chain 1 L5N] | 9.07e-05 |
| chain 1 ADLAISENWAQEFLAA [chain 1 L5I] | 9.07e-05 |
| chain 1 ADLAFSENWAQEFLAA [chain 1 L5F] | 0.000301 |
| chain 1 ADLALSENWAQEFLQA [chain 1 A15Q] | 0 |
| chain 1 ADLALSENWAQEFLGA [chain 1 A15G] | 9.87e-05 |
| chain 1 ADLALSENWAQEFLEA [chain 1 A15E] | 0.000302 |
| chain 1 ADLALSENWAQEFLYA [chain 1 A15Y] | 9.07e-05 |
| chain 1 ADLALSENWAQEFLSA [chain 1 A15S] | 0 |
| chain 1 ADLALSENWAQEFLTA [chain 1 A15T] | 0.000397 |
| chain 1 ADLALSENWAQEFLNA [chain 1 A15N] | 0.000268 |
| chain 1 ADLALSENWDQEFLAA [chain 1 A10D] | 0 |
| chain 1 ADLALSENWNQEFLAA [chain 1 A10N] | 0.000118 |
| chain 1 ADLALSENWQQEFLAA [chain 1 A10Q] | 0 |
| chain 1 ADLALSENWMQEFLAA [chain 1 A10M] | 0 |
| chain 1 ADLALSENWSQEFLAA [chain 1 A10S] | 0.000299 |
| chain 1 ADLALSENWPQEFLAA [chain 1 A10P] | 0.000417 |
| chain 1 ADLALSQNWAQEFLAA [chain 1 E7Q] | 0.000175 |
| chain 1 ADSALSENWAQEFLAA [chain 1 L3S] | 0.000293 |

| Variant | screen value |
| --- | --- |
| chain 1 ADVALSENWAQEFLAA [chain 1 L3V] | 0.000442 |
| chain 1 ADEALSENWAQEFLAA [chain 1 L3E] | 0.000345 |
| chain 1 ADRALSENWAQEFLAA [chain 1 L3R] | 0 |
| chain 1 ADLALSENWAQAFLAA [chain 1 E12A] | 0.000448 |
| chain 1 ADLALSENWAQQFLAA [chain 1 E12Q] | 0.000147 |
| chain 1 ADLALSENWAQNFLAA [chain 1 E12N] | 0 |
| chain 1 ADLALSENWAQKFLAA [chain 1 E12K] | 0.000191 |
| chain 1 ADLALSENWAQDFLAA [chain 1 E12D] | 0.000116 |
| chain 1 ADLALSENWAQRFLAA [chain 1 E12R] | 9.56e-05 |
| chain 1 ADLALSENWAQEFWAA [chain 1 L14W] | 0.000163 |
| chain 1 ADLALSENWAQEFMAA [chain 1 L14M] | 9.56e-05 |
| chain 1 ADLALSENWAQEFHAA [chain 1 L14H] | 0.000116 |
| chain 1 ADLALSENWAQEFAAA [chain 1 L14A] | 0.000388 |
| chain 1 ADLALSENWAQEFGAA [chain 1 L14G] | 0 |
| chain 1 AVLALSENWAQEFLAA [chain 1 D2V] | 0.000407 |
| chain 1 AMLALSENWAQEFLAA [chain 1 D2M] | 0.000156 |
| chain 1 ASLALSENWAQEFLAA [chain 1 D2S] | 0 |
| chain 1 AGLALSENWAQEFLAA [chain 1 D2G] | 0.000331 |
| chain 1 AILALSENWAQEFLAA [chain 1 D2I] | 0.000253 |
| chain 1 AFLALSENWAQEFLAA [chain 1 D2F] | 0 |

Next, values leading:

| screen value | Variant |
| --- | --- |
| 0.000134 | chain 1 ADLALSETWAQEFLAA [chain 1 N8T] |
| 0.000147 | chain 1 ADLALSEYWAQEFLAA [chain 1 N8Y] |
| 5.43e-05 | chain 1 ADLALSENMAQEFLAA [chain 1 W9M] |
| 0 | chain 1 ADLALSENGAQEFLAA [chain 1 W9G] |
| 0 | chain 1 ADLALSENYAQEFLAA [chain 1 W9Y] |
| 0 | chain 1 ADLALSENLAQEFLAA [chain 1 W9L] |
| 0 | chain 1 ADLALSENQAQEFLAA [chain 1 W9Q] |
| 0 | chain 1 ADLALSENTAQEFLAA [chain 1 W9T] |
| 0 | chain 1 ADLALSENPAQEFLAA [chain 1 W9P] |
| 0.000186 | chain 1 ADLALSENWAIEFLAA [chain 1 Q11I] |
| 0 | chain 1 ADLALSENWAKEFLAA [chain 1 Q11K] |
| 0 | chain 1 ADLALSENWAPEFLAA [chain 1 Q11P] |
| 0.000317 | chain 1 ADLALSENWAGEFLAA [chain 1 Q11G] |
| 0.000165 | chain 1 ADLALSENWATEFLAA [chain 1 Q11T] |
| 0.000301 | chain 1 ADLALYENWAQEFLAA [chain 1 S6Y] |
| 0 | chain 1 ADLALWENWAQEFLAA [chain 1 S6W] |
| 0.000293 | chain 1 ADLALAENWAQEFLAA [chain 1 S6A] |
| 0.000156 | chain 1 ADLALMENWAQEFLAA [chain 1 S6M] |
| 0 | chain 1 ADLALTENWAQEFLAA [chain 1 S6T] |
| 0.000313 | chain 1 ADLALIENWAQEFLAA [chain 1 S6I] |
